Reference: PMC3265570 (Nature structural & molecular biology, 2011)
No end group written: not given here.

Molecular target: full-length Crk-II (SH2-nSH3-cSH3) (UniProt Q64010-1 1-304)
Assay: other fluorescence titration

Sequence of full-length Crk-II (SH2-nSH3-cSH3) (Q64010 whole entry): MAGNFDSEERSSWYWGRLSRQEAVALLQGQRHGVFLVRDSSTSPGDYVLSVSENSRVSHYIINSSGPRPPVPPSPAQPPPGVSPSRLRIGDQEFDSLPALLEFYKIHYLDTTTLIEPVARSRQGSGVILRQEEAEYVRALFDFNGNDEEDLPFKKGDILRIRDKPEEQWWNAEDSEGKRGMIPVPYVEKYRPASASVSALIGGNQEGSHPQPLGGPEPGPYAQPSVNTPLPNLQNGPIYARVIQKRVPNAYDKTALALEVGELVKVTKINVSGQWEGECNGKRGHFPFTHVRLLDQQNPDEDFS

HPPPPLPPKRRK(fluorescein)G-NH2 [fluorescein-labeled C3G-derived ligand]
Kd: 286 ± 19 nM
